Experimental findings from US20230303685A1 (ELECTRA THERAPEUTICS, published 2023) are described below.

The Kd is the equilibrium constant for the complex coming apart. Broadly, the EC50 (read off the curve) is the concentration at which the effect is half-maximal.

Assay [1] has as its target T1, human SIRPα V1-His monomer (human, UniProt P78324 31-373, limits assumed).
T1 construct: 'SIRP-His monomer protein' of the Octet assay; also called SIRP-His; not shown: His tag
Put plainly: BLI (Octet); antibody on anti-mouse IgG capture tip, SIRP-His monomer at 100, 33.3, 11.1 nM, 1:1 fit, mean KD. A digest of the protocol: (§1)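 Rat/mouse-Fc antibodies captured on anti-mouse IgG tips; human-Fc antibodies cleaved with gingipain K to monomeric F(ab′), biotinylated, loaded on streptavidin tips. SIRP-His association then wash-buffer dissociation; 1:1 model fitted per concentration, KD as kdis/kon averaged over concentrations.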
In general terms: In BLI a coated tip is dipped into the sample, and binding shifts an interference pattern.

Assay [2] has as its target T2, human SIRPγ-His monomer (human).
T2 construct: 'SIRP-His monomer protein' of the Octet assay; also called SIRP-His; not shown: His tag
The description is as above. A digest of the protocol:
as §1

For assay [3], the target named is T3, Human SIRPβ1.
T3 construct: also called human SIRPβ1 extracellular domain, plate-coated
T3 chain: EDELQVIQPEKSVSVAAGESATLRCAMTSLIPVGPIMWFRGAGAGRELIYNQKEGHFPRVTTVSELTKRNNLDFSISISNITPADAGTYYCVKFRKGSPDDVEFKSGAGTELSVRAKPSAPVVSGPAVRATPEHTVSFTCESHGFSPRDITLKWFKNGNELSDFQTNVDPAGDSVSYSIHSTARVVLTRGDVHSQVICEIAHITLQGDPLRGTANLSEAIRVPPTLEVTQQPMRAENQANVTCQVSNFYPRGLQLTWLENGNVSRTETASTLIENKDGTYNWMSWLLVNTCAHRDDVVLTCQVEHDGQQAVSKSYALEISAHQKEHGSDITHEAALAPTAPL
Briefly: ELISA, extracellular domain coated at 2 µg/mL, undiluted hybridoma supernatant, anti-rat or anti-mouse IgG, chemiluminescence. As to the method:
Briefly, 2 μg/mL of the extracellular domain of each of the SIRPs was coated onto high protein-binding plates and blocked. Supernatants were added undiluted to coated plates. The antibodies were detected by anti-rat or anti-mouse IgG antibodies and a chemiluminescent substrate. […] The data depict the relative luminescence units read by a plate-reader capable of detecting chemiluminescence.

Assay [4] has as its target T4, human SIRPα V1 extracellular domain, monomeric (human, UniProt P78324 31-373).
T4 construct: also called hSIRPα V1
Put plainly: ELISA, extracellular domain coated at 1 µg/mL, purified antibody titrated, anti-rat IgG, chemiluminescence. As for the experimental part:
Select SIRP antibodies were purified by Protein G from hybridoma supernatants and analyzed in a titration via ELISA. Briefly, 1 μg/mL of extracellular domain SIRPα was coated onto high protein-binding plates and blocked. Purified antibodies were added in a titration to the coated plates. The antibodies were detected by an anti-rat IgG antibody and a chemiluminescent substrate.
(ELISA stands for enzyme-linked immunosorbent assay.)

The target in assay [5] is T5, Human SIRPβ1/DAP12 CHO.
T5 construct: also called human SIRPβ1 on CHO cells co-transfected with DAP12; copies: 1 + 2
Put plainly: flow cytometry, stably transfected CHO cells, antibody titrated, labelled anti-rat or anti-mouse IgG, MFI. As to the method: (§2) Selected antibodies were tested for binding to stably transfected human SIRPα, SIRPβ1 (co-transfected with DAP12), or SIRPγ Chinese hamster ovary (CHO) cells via flow cytometry. A titration of SIRP antibodies was added to the cells and detected using a fluorescently labelled secondary antibody. Graph depicts the median fluorescence intensity (MFI) at each concentration.
Background: A flow cytometer gives signals particle by particle.

The target of assay [6] is T6, Human SIRPγ CHO.
T6 construct: also called human SIRPγ on CHO cells
T6 chain: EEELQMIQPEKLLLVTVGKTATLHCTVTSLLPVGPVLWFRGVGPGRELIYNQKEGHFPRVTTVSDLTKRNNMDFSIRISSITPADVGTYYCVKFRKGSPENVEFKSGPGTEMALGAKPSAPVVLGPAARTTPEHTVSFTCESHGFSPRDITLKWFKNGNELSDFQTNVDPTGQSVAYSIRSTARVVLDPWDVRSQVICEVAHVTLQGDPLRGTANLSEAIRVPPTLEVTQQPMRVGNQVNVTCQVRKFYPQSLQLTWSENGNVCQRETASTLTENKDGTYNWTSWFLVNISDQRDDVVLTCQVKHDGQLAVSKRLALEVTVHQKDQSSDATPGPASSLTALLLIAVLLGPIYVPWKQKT
Described as above. As to the method: as §2

In assay [7] the target is T7, Human SIRPγ conjugated to an Fc region (human).
T7 construct: also called SIRPγ-Fc; SIRP-Fc; not shown: Fc region
Briefly: BLI blocking; 200 nM antibody pre-incubated with 20 nM SIRPγ-Fc, binding to immobilised CD47-His (competitor), % of response of SIRPγ-Fc alone.

Assay [8] addresses T8, Human SIRPγ.
T8 construct: also called human SIRPγ extracellular domain, plate-coated
T8 chain: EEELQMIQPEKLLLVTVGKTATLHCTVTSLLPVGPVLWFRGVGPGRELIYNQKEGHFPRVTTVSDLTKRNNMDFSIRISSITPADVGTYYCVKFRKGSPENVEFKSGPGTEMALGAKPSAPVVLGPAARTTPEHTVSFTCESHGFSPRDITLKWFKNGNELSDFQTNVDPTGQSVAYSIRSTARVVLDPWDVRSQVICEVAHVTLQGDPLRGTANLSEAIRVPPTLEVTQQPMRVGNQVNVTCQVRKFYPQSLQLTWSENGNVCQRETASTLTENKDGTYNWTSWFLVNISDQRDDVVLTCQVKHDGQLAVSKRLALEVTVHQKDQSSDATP
Put plainly: ELISA, extracellular domain coated at 2 µg/mL, purified antibody titrated, anti-rat or anti-mouse IgG, chemiluminescence. As to the method: (§3) Select SIRP antibodies were purified by Protein G from hybridoma supernatants and analyzed in a titration via ELISA. Briefly, 2 μg/mL of extracellular domain of each of the SIRPs was coated onto high protein-binding plates and blocked. Purified antibodies were added in a titration to the coated plates. The antibodies were detected by an anti-rat IgG or an anti-mouse IgG antibody and a chemiluminescent substrate.

The target in assay [9] is T9, Cynomolgus Monkey SIRPγ (Macaca fascicularis).
T9 construct: extracellular domain; also called cyno SIRPγ extracellular domain, plate-coated
The description is as above. As for the experimental part:
as §3

Assay [10] addresses T4, human SIRPα V1 extracellular domain, …. The description is as above. As to the method:
as §3

Assay [11] deals with T10, human SIRPβ1-His monomer (human, UniProt O00241 30-371).
T10 construct: 'SIRP-His monomer protein' of the Octet assay; also called SIRP-His; not shown: His tag
Briefly: BLI (Octet); antibody on anti-mouse IgG capture tip, SIRP-His monomer at 100, 33.3, 11.1 nM, 1:1 fit, mean KD. A digest of the protocol:
as §1

Assay [12] concerns the target T4, human SIRPα V1 extracellular domain, …. Briefly: SPR (Biacore); antibody captured by anti-IgG on chip, monomeric SIRPα extracellular domain as analyte, 1:1 model.
For assay [13], the target named is T11, cynomolgus monkey SIRPα extracellular domain, monomeric (cynomolgus monkey, UniProt A0A2K5VYQ9 31-372).
T11 construct: extracellular domain; also called Cyno SIRPα
Described as above.

For assay [14], the target named is T12, Cynomolgus Monkey SIRPβ1 (Macaca fascicularis).
T12 construct: extracellular domain; also called cyno SIRPβ1 extracellular domain, plate-coated
Put plainly: ELISA, extracellular domain coated at 2 µg/mL, purified antibody titrated, anti-rat or anti-mouse IgG, chemiluminescence. As for the experimental part:
as §3

The target of assay [15] is T11, cynomolgus monkey SIRPα extracellular …. The assay is described as above. As to the method:
as §3

Assay [16] concerns the target T10, human SIRPβ1-His monomer. Briefly: BLI (Octet); biotinylated monomeric F(ab') on streptavidin tip, SIRP-His monomer at 100, 33.3, 11.1 nM, 1:1 fit, mean KD. As to the method:
(§4) Select SIRP antibodies were tested for their affinities to human SIRPα, SIRPβ1, and SIRPγ using a biolayer interferometry (BLI) Octet system (Pall ForteBio). Each SIRP antibody with rat or mouse Fc was immobilized on a biosensor tip by an anti-mouse IgG capture (AMC). Antibodies with human Fc were digested with gingipain K enzyme to yield monomeric F(ab′), biotinylated, then coated onto streptavidin biosensors. […] The biosensors were then exposed to wash buffer to measure off-rate kinetics. The resulting kinetic data were analyzed and fitted using a 1:1 binding model with kₒₙ and kdis fitted separately at each SIRP-His protein concentration. KD affinities were calculated as kdis to kₒₙ ratio at each concentration of SIRP-His and averaged.

In assay [17] the target is T1, human SIRPα V1-His monomer. The description is as above. As to the method: as §4
Assay [18] addresses T2, human SIRPγ-His monomer. Described as above. As for the experimental part:
as §4

The target of assay [19] is T4, human SIRPα V1 extracellular domain, …. Briefly: ELISA, extracellular domain coated at 2 µg/mL, purified antibody titrated, anti-human IgG, chemiluminescence.
In assay [20] the target is T3, Human SIRPβ1. The description is as above.
Assay [21] addresses T5, Human SIRPβ1/DAP12 CHO. Briefly: flow cytometry, stably transfected CHO cells, antibody titrated, labelled anti-human IgG, MFI. As to the method: as §2
Assay [22] concerns the target T6, Human SIRPγ CHO. The description is as above. As for the experimental part: as §2
Assay [23] has as its target T8, Human SIRPγ. Briefly: ELISA, extracellular domain coated at 2 µg/mL, purified antibody titrated, anti-human IgG, chemiluminescence.
Assay [24] has as its target T9, Cynomolgus Monkey SIRPγ. Described as above.

T5 sequence (DAP12, as listed by the source limits assumed): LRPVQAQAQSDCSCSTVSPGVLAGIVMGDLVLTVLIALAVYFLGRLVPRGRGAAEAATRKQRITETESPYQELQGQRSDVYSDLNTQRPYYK
T7 sequence (Q9P1W8 whole entry): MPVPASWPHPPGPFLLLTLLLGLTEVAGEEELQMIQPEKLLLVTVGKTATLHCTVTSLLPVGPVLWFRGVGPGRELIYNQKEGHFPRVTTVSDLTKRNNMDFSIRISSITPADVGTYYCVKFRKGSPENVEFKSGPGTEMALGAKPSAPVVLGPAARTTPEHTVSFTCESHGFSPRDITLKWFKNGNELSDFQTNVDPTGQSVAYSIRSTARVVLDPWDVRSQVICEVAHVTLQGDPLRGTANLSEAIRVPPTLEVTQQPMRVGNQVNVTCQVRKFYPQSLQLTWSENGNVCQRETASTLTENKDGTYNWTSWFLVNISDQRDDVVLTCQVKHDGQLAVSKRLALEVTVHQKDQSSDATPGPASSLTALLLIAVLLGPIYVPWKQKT

B1: Antibody 4 (antibody, V domains shown)
VH: QVQLQESGPGLLKPSETLSLTCAVSDYSISSGYYWGWIRQPPGKGLEWIGSIYHSGNTYYNPSLKSRVTILVDTSKNQFSLKLSSVTAADTAVYYCARDKCSTTTCSFDYWGQGTLVTVSS
VL: DIQMTQSPSSLSASVGDRVTITCQASQDFSNYLNWYQQKPGKAPKLLIYAASNLETGVPSRFSGSGSGTDFTFTISSLQPEDIAVYYCQQYDNLPYTFGQGTKLEIK
notes: Human variable region, rat IgG2b Fc; from hybridoma
With B1, the Kd in [1] is 46.1 nM; in assay [2], 24.1 nM. Further, the binding result in assay [3] and in assay [5] was “binds” in each case. The concentration for a half-maximal effect (EC50 (read off the curve)) was roughly 0.05 µg/mL in [4]; roughly 0.1 µg/mL in [6]; roughly 0.05 µg/mL in assay [8]; roughly 0.07 µg/mL in [9]; roughly 0.06 µg/mL in assay [10]. Further, in [7], the “SIRPγ-CD47 Response (%)” value is -6.94%.

B2: Antibody 1 (antibody, V domains shown)
VH: QVQLQESGPGLVKPSGTLSLTCAVSGGSISSSNWWSWVRQPPGKGLEWIGEIYHSGSTNYNPSLKSRVTISVDKSKNQFSLKLSSVTAADTAVYYCARRGIWFGVGPWGQGTLVTVSS
VL: DIVMTQSPLSLPVTPGEPASISCRSSQSLLHGNGFNYLDWYLQKPGQSPQLLIYLGSNRASGVPDRFTGSGSGTDFTLKISRVEAEDVGVYYCMQGLQTPRTFGQGTKVEIK
notes: as for B1
As for B2, the equilibrium dissociation constant (Kd) came to 3.52 µM in [11]; 37.1 nM in assay [1]; 973 nM in assay [2]; 579 nM in [12]; 581 nM in assay [13]. Also, the “SIRPγ-CD47 Response (%)” value in assay [7] worked out at 110%. Also, the 50% effective concentration (EC50 (read off the curve)) in [8] was roughly 0.2 µg/mL; in assay [14] it was roughly 0.2 µg/mL; in assay [10], roughly 0.1 µg/mL; in [15], roughly 0.1 µg/mL.

B3: Antibody 28, monomeric F(ab') (gingipain K digest, biotinylated) (Fab, V domains shown)
VH: B2 VH
VL: B2 VL
modifications: biotinylated (site not stated)
As to B3, the equilibrium dissociation constant (Kd) worked out at 555 nM in assay [16], 14.9 nM in assay [17] and 1340 nM in [18].

B4: Antibody 32 (antibody, V domains shown)
VH: QVQLQESGPGLVKPSGTLSLTCAVSGGSISSSNWWSWVRQPPGKGLEWIGEIYHSGNTNYNPSLKSRVTISVDKSKNQFSLKLSSVTAADTAVYYCAREGIEGYYFYYGMDVWGQGTTVTVSS
VL: DIQLTQSPSFLSASVGDRVTITCRASQGISGYLDWYQQKPGKAPKLLIYAASTLQRGVPSRFSGSGSGTDFNLTISSLQPEDFATYYCQQFTSDLITFGQGTRLEIK
notes: same variable regions as Antibodies 3 and 24
As for B4, the “EC50 (read off the curve)” value was roughly 0.03 µg/mL in [19]; roughly 0.03 µg/mL in assay [20]; roughly 0.3 µg/mL in assay [21]; roughly 0.2 µg/mL in [22]; roughly 0.02 µg/mL in [23]; roughly 0.03 µg/mL in [24].
